How the values were obtained:
Assay in all cases: IEDB peptide-MHC binding, purified MHC/competitive/fluorescence; filed as Kd, often an IC50 or EC50 that approximates it; ≥ and ≤ were set here for values at or beyond the usual limits of such assays
Conditions in all cases: source organism: Plasmodium falciparum
HLA-A*02:01 = molecular target: HLA-A*02:01
HLA-A*24:02 = molecular target: HLA-A*24:02
HLA-A*01:01 = molecular target: HLA-A*01:01
HLA-B*44:02 = molecular target: HLA-B*44:02
HLA-A*03:01 = molecular target: HLA-A*03:01
HLA-B*07:02 = molecular target: HLA-B*07:02

CKMEKCSSV
Kd (HLA-A*02:01): ≥ 100 µM

CKMEKCSSVF
Kd (HLA-A*24:02): ≥ 250 µM

CSSVFNVVN
Kd (HLA-A*01:01): ≥ 82.5 µM

DELDYANDI
Kd (HLA-B*44:02): ≥ 277 µM

DENANANNA
Kd (HLA-B*44:02): ≥ 896 µM

ELDYENDIEK
Kd (HLA-A*01:01): ≥ 100 µM

EWSPCSVTCG
Kd (HLA-A*24:02): ≥ 685 µM

HIKEYLNKI
Kd (HLA-A*02:01): ≥ 259 µM

HITEYLKKI
Kd (HLA-A*02:01): ≥ 148 µM

IEKKICKMEK
Kd (HLA-A*03:01): ≥ 100 µM

IEQYLKKIQY
Kd (HLA-A*01:01): ≥ 100 µM
Kd (HLA-B*44:02): ≥ 157 µM

IQNSLSTEW
Kd (HLA-A*24:02): ≥ 21.3 µM
Kd (HLA-B*44:02): ≥ 136 µM

KDELDYENDI
Kd (HLA-B*44:02): ≥ 100 µM

KEYLNKIQNS
Kd (HLA-B*44:02): ≥ 100 µM

KMEKCSSVF
Kd (HLA-A*01:01): ≥ 100 µM
Kd (HLA-B*07:02): ≥ 100 µM

KPGSADKPKD
Kd (HLA-B*07:02): ≥ 100 µM

KPGSANKPKD
Kd (HLA-B*07:02): ≥ 100 µM

LDYANDIEK
Kd (HLA-A*03:01): ≥ 100 µM

LIMVLSFLF
Kd (HLA-A*24:02): 19.3 µM

LSTEWSPCS
Kd (HLA-A*01:01): ≥ 100 µM

MEKCSSVFN
Kd (HLA-B*44:02): ≥ 143 µM

MPNDPNRNV
Kd (HLA-B*07:02): ≥ 511 µM
Kd (HLA-B*44:02): ≥ 100 µM

NEEPSDKHI
Kd (HLA-B*44:02): ≥ 100 µM

NEEPSDKHIK
Kd (HLA-A*01:01): ≥ 100 µM
Kd (HLA-B*44:02): ≥ 100 µM

NEEPSDQHI
Kd (HLA-B*44:02): ≥ 100 µM

NPDPNANPNV
Kd (HLA-B*07:02): ≥ 100 µM

NPNANPNAN
Kd (HLA-B*07:02): ≥ 100 µM

NPNANPNANP
Kd (HLA-B*07:02): ≥ 100 µM

NPNVDPNANP
Kd (HLA-B*07:02): ≥ 100 µM

NSSIGLIMV
Kd (HLA-A*01:01): ≥ 215 µM

NVDENANAN
Kd (HLA-A*01:01): ≥ 100 µM

NVDENANANN
Kd (HLA-A*01:01): ≥ 667 µM

NVDPNANPNV
Kd (HLA-A*01:01): ≥ 100 µM

PSDKHIEQY
Kd (HLA-A*01:01): 2 µM

PSDKHIKEY
Kd (HLA-A*01:01): ≥ 24.8 µM

PSDKHITEY
Kd (HLA-A*01:01): 2.67 µM

QLDYENDIEK
Kd (HLA-A*01:01): ≥ 726 µM
Kd (HLA-A*03:01): ≥ 100 µM

QVRIKPGSA
Kd (HLA-B*07:02): ≥ 134 µM

RIKPGSADK
Kd (HLA-A*03:01): 17.7 µM

RIKPGSANK
Kd (HLA-A*03:01): ≥ 21.3 µM

SADKPKDQLD
Kd (HLA-A*01:01): 8.97 µM

SPCSVTCGNG
Kd (HLA-B*07:02): ≥ 100 µM

STEWSPCSV
Kd (HLA-A*01:01): 3.18 µM

SVFNVVNSSI
Kd (HLA-A*02:01): ≥ 342 µM
Kd (HLA-A*03:01): ≥ 100 µM
Kd (HLA-B*07:02): ≥ 100 µM

SVTCGNGIQV
Kd (HLA-A*02:01): ≥ 489 µM
Kd (HLA-B*07:02): ≥ 100 µM

TEWSPCSVT
Kd (HLA-B*44:02): ≥ 100 µM

TEYLKKIQN
Kd (HLA-B*44:02): ≥ 100 µM

VTCGNGIQV
Kd (HLA-A*01:01): ≥ 100 µM
Kd (HLA-A*03:01): ≥ 100 µM

YLKIIQNSL
Kd (HLA-A*02:01): 4.88 µM

YLKKIQNSL
Kd (HLA-A*02:01): 2.18 µM
Kd (HLA-A*24:02): 11.2 µM
Kd (HLA-B*07:02): 9.2 µM

YLKKIQYSL
Kd (HLA-A*02:01): 2.58 µM

— the Immune Epitope Database (IEDB)
